Experimental data from the supplement of paper PMC11865577.

Assays:
Experiment in all cases: pull-down binding Z-score (relative to library population); higher = stronger binding
Conditions in all cases: RNA library: Library-2
[1] = system: TO-3-N3-2 (biotin conjugate)
Method in brief: (§1)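 A heat-folded, dye-end-labelled (Cy5 or Cy3) RNA library (1 μg, phosphate/NaCl/KCl buffer) was exposed for 60 min at 25 °C to streptavidin beads holding 100 pmol of biotin-conjugated small molecule. RNA retained on the beads was eluted in hot SDS and hybridised to a DNA barcode microarray for 20 h at 55.5 °C. Binding scores were Z-scores against the library mean and standard deviation, calculated after subtracting beads alone and taking trimmed means of replicate probes.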

TO-N3 (biotin conjugate) = system: TO-N3 (biotin conjugate)
Method in brief: as §1

[2] = system: TO-3-N3 (biotin conjugate)
Method in brief: as §1

[3] = system: TO-N3-2 (biotin conjugate)
Method in brief: as §1

Row | Sequence | pull-down binding Z-score [1] | pull-down binding Z-score (TO-N3 (biotin conjugate)) | pull-down binding Z-score [2] | pull-down binding Z-score [3]
1 | GGGUUUACAAACAAUUUGAUACUUAUAACCU [DMSMaPseq_invitro_SARS-CoV-2_Motif_347] | -0.105 | -0.828 | -0.652 | -1.11
2 | GGUAAAAUUGUUAAUAAUUGGUUGAAGCAGUUAAUUAAAGUUACACUUGUGUUCCUUUUUGUUGCUGCUAUUUUCUAUUUAAUAACACC [DMSMaPseq_invitro_SARS-CoV-2_Motif_156] | -0.271 | -0.828 | -0.485 | -1.04
3 | GGUAAUUAUACAGUUUCCUGUUUACC [DMSMaPseq_invitro_SARS-CoV-2_Motif_504] | -0.713 | -1.05 | -0.536 | -0.867
4 | GGUAAUUAUACAGUUUCCUGUUUACCUUUUACAAUUAAUUGCC [SHAPE_invitro_SARS-CoV-2_Motif_513] | 0.0742 | -1.04 | -0.718 | -1.1
5 | GGUACAACAACUUACAAAUUAAAUGUUGGUGAUUAUUUUGUGCU [SHAPE_invivo_SARS-CoV-2_Motif_319] | -0.134 | -0.509 | -0.537 | -0.524
6 | GGUACAUUUACUUGUGCU [SHAPE_invivo_SARS-CoV-2_Motif_118] | -0.344 | 0.678 | 0.677 | -0.222
7 | GGUACGUUAAUAGUUAAUAGCGUACUUCUUUUUCUUGCUUUCGUGGUAUUCUUGCUAGUUACACUAGCCAUCCUUACUGCGCUUCGAUUGUGUGCGUACU | -0.0614 | 0.41 | 0.654 | -0.294
8 | GGUCAAAUCAAUGAUAUGAUUUUAUC | -0.505 | -1.26 | -0.859 | -1.3
9 | GGUCAGAAUGAUC [IAV_invivo_NP_5_Motif_12+IAV_invivo_NP_5_Motif_12] | -0.0405 | -0.601 | -0.394 | -0.437
10 | GGUCCAGAACAAACCCAAGGAAAUUUUGGGGACC | 0.197 | 0.0164 | 0.213 | -0.00332
11 | GGUCCAGCAACAGCUCAAAUGGCC [IAV_invivo_PB1_2_Motif_29+IAV_invivo_PB1_2_Motif_29] | -0.356 | -0.26 | -0.414 | 0.392
12 | GGUCUAUAUGCC [SHAPE_invivo_SARS-CoV-2_Motif_218] | -0.349 | 0.0896 | 0.153 | -0.475
13 | GGUCUCCGACGGAGGCC [IAV_invivo_PB1_2_Motif_32+IAV_invivo_PB1_2_Motif_32] | -0.224 | -0.183 | 0.0169 | -1.15
14 | GGUCUGCAGGACU [IAV_invivo_PA_3_Motif_27+IAV_invivo_PA_3_Motif_27] | -0.237 | -0.125 | 0.0311 | -0.231
15 | GGUGAAGGACGGGUCCAGUAGUUCGCUACUGUUGAGUAGAGUGUGAGCUCC [BabySpinach] | 0.648 | 2.08 | 1.09 | 2.02
16 | GGUGACAACAACC [IAV_invivo_M1_M2_7_Motif_11+IAV_invivo_M1_M2_7_Motif_11] | -0.31 | -0.366 | -0.283 | -0.457
17 | GGUGCUCCCAAGAGGGAAGCU [IAV_invivo_NP_5_Motif_18+IAV_invivo_NP_5_Motif_18] | -0.165 | 0.405 | -0.0194 | 0.775

Row | Sequence | pull-down binding Z-score [1] | pull-down binding Z-score (TO-N3 (biotin conjugate)) | pull-down binding Z-score [2] | pull-down binding Z-score [3]
18 | GGUGGAAUUGGACGAUUCUACAUCCAAAUGUGCACC [IAV_invivo_NP_5_Motif_3+IAV_invivo_NP_5_Motif_3] | -0.333 | -0.779 | -0.714 | -0.454
19 | GGUGGCAAACCUUGUAUCAAAGUAGCCACU [SHAPE_invitro_SARS-CoV-2_Motif_216] | -0.373 | -0.798 | -0.569 | -0.605
20 | GGUGGUAUUGUAGCUAUCGUAGUAACAUGCCUUGCC | -0.0179 | 0.693 | 0.56 | 0.0259
21 | GGUGUGGAUGGCAUGCC [IAV_invivo_NP_5_Motif_17+IAV_invivo_NP_5_Motif_17] | -0.0718 | -0.121 | -0.0853 | 0.0568
22 | GGUGUUGCAGGAGCCUUAAAUAAGGCUACUAACAAUGCC [SHAPE_invivo_SARS-CoV-2_Motif_68] | -0.474 | -0.882 | -0.697 | -1.05
23 | GGUGUUGUUGGAGAAGGUUCCGAAGGUCUUAAUGACAACCUUCUUGAAAUACUCC | 0.0401 | 0.261 | 0.245 | 0.062
24 | GGUGUUUAUUACC | -0.382 | -0.968 | -0.454 | -0.855
25 | GGUGUUUUAACU | -0.285 | -0.303 | -0.133 | -0.847
26 | GGUGUUUUAACUGCUGUGGUUAUACCUACUAAAAAGGCUGGUGGCACUACUGAAAUGCU | -0.12 | -0.521 | -0.83 | -0.153
27 | GGUUAUAAGAAACC | -0.849 | -0.351 | -0.083 | -0.964
28 | GGUUCAACUCUCCCUAGGAGGUCUGGAGCC [IAV_invivo_NP_5_Motif_11+IAV_invivo_NP_5_Motif_11] | -0.309 | -0.225 | -0.418 | 0.0598
29 | GGUUCACUAUAUGUUAAACCAGGUGGAACC | 0.221 | 0.506 | 0.612 | -0.369
30 | GGUUCGUGUCUUUAGCUAUAGAUGCUUACC | 0.206 | 0.913 | 0.877 | -0.066
31 | GGUUGGGAAAUUGUUAAAUUUAUCUCAACC | -0.155 | -0.616 | -0.472 | -0.802
32 | GGUUGGGAGAAGAGCAACAGCC [IAV_invivo_PB2_1_Motif_16+IAV_invivo_PB2_1_Motif_16] | 0.479 | 0.776 | 0.351 | 1.09
33 | GGUUGUAUGGUACAAGUAACUUGUGGUACAACU | -0.128 | -0.61 | -0.51 | -0.264
